The values below come from US20220169722A1 (WUXI BIOLOGICS IRELAND, published 2022).

The target of test [1] is T1, cynomolgus LAG-3 on transfected cells (cynomolgus monkey).
T1 construct: whole, on cells; 293F cells transfected with cynomolgus LAG-3; also called cell surface cynomolgus LAG-3; monkey LAG-3
Kind of test: FACS on cynomolgus LAG-3 transfected cells. The protocol: Similarly, cross-reactivity to cynomolgus or murine LAG-3 was tested by FACS with cyno or murine LAG-3 transfected cell lines.

Test [2] addresses T2, mFc-tagged mouse LAG-3 (mouse, UniProt Q61790 24-442).
T2 construct: extracellular domain; also called mFc-tagged mouse protein
T2 sequence (looked up): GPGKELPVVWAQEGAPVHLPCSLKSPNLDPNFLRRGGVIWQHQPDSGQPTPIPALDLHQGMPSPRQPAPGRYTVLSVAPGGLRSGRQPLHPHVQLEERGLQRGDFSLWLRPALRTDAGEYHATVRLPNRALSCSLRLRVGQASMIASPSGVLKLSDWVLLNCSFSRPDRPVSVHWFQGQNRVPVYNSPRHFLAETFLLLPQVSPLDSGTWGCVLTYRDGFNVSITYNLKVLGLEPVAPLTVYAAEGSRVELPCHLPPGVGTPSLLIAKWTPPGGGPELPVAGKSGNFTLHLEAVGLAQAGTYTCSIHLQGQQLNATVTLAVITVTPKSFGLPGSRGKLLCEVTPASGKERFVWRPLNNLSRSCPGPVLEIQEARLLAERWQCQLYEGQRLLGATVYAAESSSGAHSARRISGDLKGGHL
Kind of test: FACS competition; blocks mFc-mouse LAG-3 binding to MHC-II on A20 cells.

In test [3] the target is T3, mouse Fc (mFc)-tagged human LAG-3 (human, UniProt P18627 23-450).
T3 construct: extracellular domain
T3 sequence (looked up): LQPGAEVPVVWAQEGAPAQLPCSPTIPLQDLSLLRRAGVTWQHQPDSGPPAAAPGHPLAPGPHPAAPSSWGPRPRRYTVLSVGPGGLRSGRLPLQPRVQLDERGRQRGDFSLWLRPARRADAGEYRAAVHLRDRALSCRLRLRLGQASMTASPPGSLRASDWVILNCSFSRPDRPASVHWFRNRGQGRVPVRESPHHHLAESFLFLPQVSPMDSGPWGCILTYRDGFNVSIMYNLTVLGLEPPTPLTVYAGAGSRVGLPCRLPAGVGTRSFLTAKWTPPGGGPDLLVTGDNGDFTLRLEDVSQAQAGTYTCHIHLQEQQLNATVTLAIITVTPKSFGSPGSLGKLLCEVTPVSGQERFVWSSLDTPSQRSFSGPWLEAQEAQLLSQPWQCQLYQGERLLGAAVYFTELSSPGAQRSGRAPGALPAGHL
Kind of test: ELISA blocking: antibody pre-mixed with mFc-tagged human LAG-3, added to plates coated with human LSECtin (blocked ligand); detection goat anti-mouse IgG Fc-HRP. On the procedure: (§1) 96-well plates were coated with human LSECtin or Galectin-3 at 0.5 μg/ml overnight at 4° C., respectively. […] After blocking and washing, the mixture was transferred to the plates and incubated at room temperature for 1 h. The plates were then washed and subsequently incubated with the secondary antibody goat-anti Mouse IgG Fc-HRP for 1 h. After washing, TMB substrate was added and the color reaction was stopped by 2M HCl. The absorbance at 450 nm was read using a microplate reader.
In general terms: ELISA stands for enzyme-linked immunosorbent assay.

Test [4] concerns the target T3, mouse Fc (mFc)-tagged human LAG-3. Kind of test: ELISA blocking: antibody pre-mixed with mFc-tagged human LAG-3, added to plates coated with human Galectin-3 (blocked ligand); detection goat anti-mouse IgG Fc-HRP. On the procedure: as §1
The target is the same in test [5]. Kind of test: FACS blocking: antibody pre-mixed with mFc-tagged human LAG-3, added to Raji cells; blocked ligand: human MHC-II on Raji cells; detection goat anti-mouse IgG Fc-PE. On the procedure:
The mixture was transferred into the 96-well plates seeded with Raji cells. Goat anti-mouse IgG Fc-PE antibody was used to detect the binding of LAG-3 protein to Raji cells. The mean fluorescence intensity (MFI) was evaluated by flow cytometry and analyzed by FlowJo.

The target in test [6] is T4, human LAG-3 on transfected cells (human, UniProt P18627 23-525).
T4 construct: whole, on cells; Flp-In-293 or CHO-K1 cells transfected with full length human LAG-3; also called cell surface human LAG-3
T4 sequence (looked up): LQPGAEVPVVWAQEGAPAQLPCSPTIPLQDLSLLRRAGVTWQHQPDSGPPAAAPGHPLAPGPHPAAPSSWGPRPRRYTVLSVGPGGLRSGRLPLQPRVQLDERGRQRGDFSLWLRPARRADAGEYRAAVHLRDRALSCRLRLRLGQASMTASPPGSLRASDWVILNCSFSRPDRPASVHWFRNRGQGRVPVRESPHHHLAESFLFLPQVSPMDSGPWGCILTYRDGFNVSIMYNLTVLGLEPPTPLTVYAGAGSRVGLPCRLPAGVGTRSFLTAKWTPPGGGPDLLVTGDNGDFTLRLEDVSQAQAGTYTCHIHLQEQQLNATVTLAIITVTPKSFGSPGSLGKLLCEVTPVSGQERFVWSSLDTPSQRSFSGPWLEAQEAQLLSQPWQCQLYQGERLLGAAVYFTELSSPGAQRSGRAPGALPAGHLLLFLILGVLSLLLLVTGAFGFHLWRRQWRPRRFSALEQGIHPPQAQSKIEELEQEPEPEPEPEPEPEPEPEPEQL
Kind of test: FACS on human LAG-3 transfected cells with serum-treated antibody, PE-labeled goat anti-human IgG. The protocol:
On indicated time points (day 0, day 1, day 4, day 7 and day 14), an aliquot of serum treated sample were removed from the incubator and snap frozen in liquid N2, and then stored at −80° C. until ready for test. All the samples were quickly thawed prior to the stability test. […] MFI of the cells was measured by a flow cytometry and analyzed by FlowJo.

The target in test [7] is T5, human LAG-3 protein (SPR analyte) (human, UniProt P18627 23-450).
T5 construct: extracellular domain
T5 sequence (looked up): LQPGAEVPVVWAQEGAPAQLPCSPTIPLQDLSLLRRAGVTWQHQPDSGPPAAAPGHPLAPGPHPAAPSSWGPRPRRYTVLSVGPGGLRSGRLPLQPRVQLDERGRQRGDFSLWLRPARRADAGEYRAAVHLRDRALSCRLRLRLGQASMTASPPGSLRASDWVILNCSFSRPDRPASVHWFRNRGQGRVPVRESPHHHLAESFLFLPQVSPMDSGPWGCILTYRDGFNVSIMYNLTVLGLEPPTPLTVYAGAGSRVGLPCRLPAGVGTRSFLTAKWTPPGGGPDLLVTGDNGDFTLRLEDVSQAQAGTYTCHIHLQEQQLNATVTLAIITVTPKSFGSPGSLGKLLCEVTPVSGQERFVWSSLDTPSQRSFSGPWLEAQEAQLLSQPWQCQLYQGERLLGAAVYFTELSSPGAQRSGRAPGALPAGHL
Kind of test: SPR Biacore 8K, Ab captured on anti-human Fc, LAG-3 as analyte. For orientation: In SPR one partner is held on a chip, and binding of the other changes the refractive index at the surface.

In test [8] the target is T6, mouse LAG-3 protein (SPR analyte) (mouse, UniProt Q61790 24-442).
T6 construct: extracellular domain
T6 sequence (looked up): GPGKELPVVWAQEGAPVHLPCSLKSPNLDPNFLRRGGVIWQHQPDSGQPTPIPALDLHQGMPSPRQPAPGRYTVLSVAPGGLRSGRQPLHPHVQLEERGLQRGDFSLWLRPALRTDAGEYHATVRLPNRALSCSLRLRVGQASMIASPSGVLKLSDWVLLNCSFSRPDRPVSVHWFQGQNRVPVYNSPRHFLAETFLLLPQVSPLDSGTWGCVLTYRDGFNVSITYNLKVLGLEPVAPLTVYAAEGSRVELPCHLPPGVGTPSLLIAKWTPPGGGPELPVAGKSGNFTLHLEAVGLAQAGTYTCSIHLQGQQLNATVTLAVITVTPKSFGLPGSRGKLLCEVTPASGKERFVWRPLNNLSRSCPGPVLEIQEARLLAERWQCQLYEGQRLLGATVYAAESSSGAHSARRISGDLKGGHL
The test is described as above.

B1: W3396-R2-1 (Fc fusion)
VHH: QVQLVESGGGVVQPGGSLRLSCAASGLTLSQYTMGWFRQAPGKERELVAAIHWTSSVTDYADSVYGRFTISRDDSKNTGYLQMNSLRAEDTAVYYCAATWYYTHRGSFDYWGQGTLVTVSS
In turn, B1 came in with an EC50 in test [1] of 2.34 nM. Moreover, the 50% inhibitory concentration (IC50) in test [2] was 2.9 nM; in test [3], 0.642 nM; in test [4], 0.926 nM; in test [5] it was 0.84 nM. Moreover, the concentration giving a half-maximal response (EC50 (read off the curve)) in test [6] was ~0.1 nM. Also, the dissociation constant (Kd) in test [7] is 0.162 nM; in test [8], < 0.00122 nM. For the same molecule, the koff in test [7] was 2.7e-05 s⁻¹; in test [8], < 1e-06 s⁻¹. Also, the association rate constant (kon) in test [7] came to 166000 M⁻¹ s⁻¹; in test [8], 819000 M⁻¹ s⁻¹.

B2: W3396-R2-13 (Fc fusion)
VHH: QVQLVESGGGVVQPGGSLRLSCAASGLTLSQYTMGWFRQAPGKERELVAAIHWTSSVTDYADSVRGRFTISRDDSKNTGYLQMNSLRAEDTAVYYCAATWYYTHRGSFDYWGQGTLVTVSS
The molecule B2 displayed an EC50 in test [1] of 2.16 nM. Also, the IC50 in test [2] amounted to 2.4 nM; in test [3], 0.797 nM; in test [4], 1.29 nM; in test [5], 0.46 nM. In addition, in test [6], the “EC50 (read off the curve)” value was ~0.2 nM. Also, the Kd in test [7] is 4.06 nM; in test [8] it was < 0.000952 nM. The dissociation rate constant (koff) in test [7] is 0.000197 s⁻¹; in test [8], < 1e-06 s⁻¹. Further, the kon worked out at 48400 M⁻¹ s⁻¹ in test [7] and 1.05e+06 M⁻¹ s⁻¹ in test [8].

Usually EC50 stands for the concentration giving half of the maximal effect. The low end stands for a more potent agent, the high end for a less potent agent. By IC50 is commonly meant the concentration at which inhibition is half-maximal. The low end stands for greater potency, the high end for weaker potency. What is called EC50 (read off the curve) is the concentration that produces a half-maximal response. Low values mean a more potent agent, high ones a less potent agent. As a reminder, the Kd is the free concentration of one partner at which half of the binding sites on the other are occupied at equilibrium, for simple one-to-one binding. Higher therefore signals a looser complex. Broadly, the koff is a measure of how fast the partners let go of each other. Usually kon stands for a measure of how fast the partners come together. Low readings indicate slower complex formation, high ones faster complex formation.
